Measured values taken from patent US20210403506A1 (XDCEXPLORER SHANGHAI, published 2021).
Square brackets hold non-standard residues; d marks the D form. Primed or numbered codes have the meaning given here. Ends that are not written are not given here. * marks the point of attachment. Pro(trans-4-Ph) = O=C(O)[C@@H]1C[C@@H](c2ccccc2)CN1; Bpa = N[C@@H](Cc1ccc(C(=O)c2ccccc2)cc1)C(=O)O; Pro(5R-Ph) = O=C(O)[C@@H]1CC[C@H](c2ccccc2)N1; dTyr(3-F) = N[C@H](Cc1ccc(O)c(F)c1)C(=O)O; PEG8 = NCCOCCOCCOCCOCCOCCOCCOCCOCCC(=O)O; Pro(diF)″ = difluoroproline (DiFluorPro); 1Nal = N[C@@H](Cc1cccc2ccccc12)C(=O)O; 2Nal = N[C@@H](Cc1ccc2ccccc2c1)C(=O)O; dNMeY = CN[C@H](Cc1ccc(O)cc1)C(=O)O; Palmitoyl = CCCCCCCCCCCCCCCC(=O)*; NMeF = CN[C@@H](Cc1ccccc1)C(=O)O; Tic = O=C(O)[C@@H]1Cc2ccccc2CN1; dTic = O=C(O)[C@H]1Cc2ccccc2CN1; NMeL = CN[C@@H](CC(C)C)C(=O)O; Pro(4Ph) = 4-phenylproline; NMeS = CN[C@@H](CO)C(=O)O; Thz = O=C(O)[C@@H]1CSCN1; Aze = O=C(O)[C@@H]1CCN1; βAla = NCCC(=O)O

T1: human Chemokine like receptor 1 (human, UniProt Q99788 1-373)
T1 sequence (looked up): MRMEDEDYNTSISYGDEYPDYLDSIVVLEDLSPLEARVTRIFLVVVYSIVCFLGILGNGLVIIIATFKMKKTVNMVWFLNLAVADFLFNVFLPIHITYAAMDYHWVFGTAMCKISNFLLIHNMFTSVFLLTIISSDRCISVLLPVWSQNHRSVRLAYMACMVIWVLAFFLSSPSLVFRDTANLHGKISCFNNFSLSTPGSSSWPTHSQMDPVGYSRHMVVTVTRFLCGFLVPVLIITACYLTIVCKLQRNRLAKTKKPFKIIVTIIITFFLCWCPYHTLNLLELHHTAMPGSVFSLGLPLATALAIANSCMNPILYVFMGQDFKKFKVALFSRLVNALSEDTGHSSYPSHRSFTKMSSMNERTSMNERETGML

B1: YW-115 (peptide)
peptide: [dY]FL[Aze][dS]QF[dA][Tic]S-OH
modifications: N-terminus assumed
SMILES: CC(C)C[C@H](NC(=O)[C@H](Cc1ccccc1)NC(=O)[C@H](N)Cc1ccc(O)cc1)C(=O)N1CC[C@H]1C(=O)N[C@H](CO)C(=O)N[C@@H](CCC(N)=O)C(=O)N[C@@H](Cc1ccccc1)C(=O)N[C@H](C)C(=O)N1Cc2ccccc2C[C@H]1C(=O)N[C@@H](CO)C(=O)O
B2: YW-220 (peptide)
peptide: [dNMeY]F[NMeL]P[dS]Q[2Nal][dA][Tic][NMeS]
modifications: not fully specified (residue 4); printed as (NMe-D-Tyr)-Phe-(NMe-Leu)-Pro(tran-4F)-(D-Ser)-Gln-(Nal-2)-(D-Ala)-Tic-(NMe-Ser)
B3: YW-221 (peptide)
peptide: [dTyr(3-F)]F[NMeL]P[dS]Q[2Nal][dA][Tic][NMeS]
modifications: not fully specified (residue 4); printed as (D-Tyr(3F))-Phe-(NMe-Leu)-Pro(tran-4F)-(D-Ser)-Gln-(Nal-2)-(D-Ala)-Tic-(NMe-Ser)
B4: YW-112 (peptide)
peptide: [dY]FL[Pro(5R-Ph)][dS]QF[dA][Tic]S-OH
modifications: N-terminus assumed
SMILES: CC(C)C[C@H](NC(=O)[C@H](Cc1ccccc1)NC(=O)[C@H](N)Cc1ccc(O)cc1)C(=O)N1[C@@H](c2ccccc2)CC[C@H]1C(=O)N[C@H](CO)C(=O)N[C@@H](CCC(N)=O)C(=O)N[C@@H](Cc1ccccc1)C(=O)N[C@H](C)C(=O)N1Cc2ccccc2C[C@H]1C(=O)N[C@@H](CO)C(=O)O
B5: YW-118 (peptide)
peptide: [dY]FLP[dS]Q[2Nal][dA][Tic]S-OH
modifications: N-terminus assumed
SMILES: CC(C)C[C@H](NC(=O)[C@H](Cc1ccccc1)NC(=O)[C@H](N)Cc1ccc(O)cc1)C(=O)N1CCC[C@H]1C(=O)N[C@H](CO)C(=O)N[C@@H](CCC(N)=O)C(=O)N[C@@H](Cc1ccc2ccccc2c1)C(=O)N[C@H](C)C(=O)N1Cc2ccccc2C[C@H]1C(=O)N[C@@H](CO)C(=O)O
B6: YW-117 (peptide)
peptide: [dY]FLP[dS]Q[1Nal][dA][Tic]S-OH
modifications: N-terminus assumed
SMILES: CC(C)C[C@H](NC(=O)[C@H](Cc1ccccc1)NC(=O)[C@H](N)Cc1ccc(O)cc1)C(=O)N1CCC[C@H]1C(=O)N[C@H](CO)C(=O)N[C@@H](CCC(N)=O)C(=O)N[C@@H](Cc1cccc2ccccc12)C(=O)N[C@H](C)C(=O)N1Cc2ccccc2C[C@H]1C(=O)N[C@@H](CO)C(=O)O
B7: YW-103 (peptide)
peptide: [dNMeY]FLP[dS]QF[dA][Tic]S-OH
modifications: N-terminus assumed
SMILES: CN[C@H](Cc1ccc(O)cc1)C(=O)N[C@@H](Cc1ccccc1)C(=O)N[C@@H](CC(C)C)C(=O)N1CCC[C@H]1C(=O)N[C@H](CO)C(=O)N[C@@H](CCC(N)=O)C(=O)N[C@@H](Cc1ccccc1)C(=O)N[C@H](C)C(=O)N1Cc2ccccc2C[C@H]1C(=O)N[C@@H](CO)C(=O)O
B8: YW-121 (peptide)
peptide: [dY]F[NMeL][Thz][dS]QF[dA][Tic]S-OH
modifications: N-terminus assumed
SMILES: CC(C)C[C@@H](C(=O)N1CSC[C@H]1C(=O)N[C@H](CO)C(=O)N[C@@H](CCC(N)=O)C(=O)N[C@@H](Cc1ccccc1)C(=O)N[C@H](C)C(=O)N1Cc2ccccc2C[C@H]1C(=O)N[C@@H](CO)C(=O)O)N(C)C(=O)[C@H](Cc1ccccc1)NC(=O)[C@H](N)Cc1ccc(O)cc1
B9: YW-110 (peptide)
peptide: [dY]FLP[dS]QF[dA][Tic][NMeS]-OH
modifications: N-terminus assumed
SMILES: CC(C)C[C@H](NC(=O)[C@H](Cc1ccccc1)NC(=O)[C@H](N)Cc1ccc(O)cc1)C(=O)N1CCC[C@H]1C(=O)N[C@H](CO)C(=O)N[C@@H](CCC(N)=O)C(=O)N[C@@H](Cc1ccccc1)C(=O)N[C@H](C)C(=O)N1Cc2ccccc2C[C@H]1C(=O)N(C)[C@@H](CO)C(=O)O
B10: YW-114 (peptide)
peptide: [dY]FL[Thz][dS]QF[dA][Tic]S-OH
modifications: N-terminus assumed
SMILES: CC(C)C[C@H](NC(=O)[C@H](Cc1ccccc1)NC(=O)[C@H](N)Cc1ccc(O)cc1)C(=O)N1CSC[C@H]1C(=O)N[C@H](CO)C(=O)N[C@@H](CCC(N)=O)C(=O)N[C@@H](Cc1ccccc1)C(=O)N[C@H](C)C(=O)N1Cc2ccccc2C[C@H]1C(=O)N[C@@H](CO)C(=O)O
B11: YW-119 (peptide)
peptide: [dY]FLP[dS]Q[Bpa][dA][Tic]S-OH
modifications: N-terminus assumed
SMILES: CC(C)C[C@H](NC(=O)[C@H](Cc1ccccc1)NC(=O)[C@H](N)Cc1ccc(O)cc1)C(=O)N1CCC[C@H]1C(=O)N[C@H](CO)C(=O)N[C@@H](CCC(N)=O)C(=O)N[C@@H](Cc1ccc(C(=O)c2ccccc2)cc1)C(=O)N[C@H](C)C(=O)N1Cc2ccccc2C[C@H]1C(=O)N[C@@H](CO)C(=O)O
B12: YW-149 (peptide)
peptide: [dY]FLP[dS]QF[dA][dTic]S-OH
modifications: N-terminus assumed
SMILES: CC(C)C[C@H](NC(=O)[C@H](Cc1ccccc1)NC(=O)[C@H](N)Cc1ccc(O)cc1)C(=O)N1CCC[C@H]1C(=O)N[C@H](CO)C(=O)N[C@@H](CCC(N)=O)C(=O)N[C@@H](Cc1ccccc1)C(=O)N[C@H](C)C(=O)N1Cc2ccccc2C[C@@H]1C(=O)N[C@@H](CO)C(=O)O
B13: YW-104 (peptide)
peptide: [dY][NMeF]LP[dS]QF[dA][Tic]S-OH
modifications: N-terminus assumed
SMILES: CC(C)C[C@H](NC(=O)[C@H](Cc1ccccc1)N(C)C(=O)[C@H](N)Cc1ccc(O)cc1)C(=O)N1CCC[C@H]1C(=O)N[C@H](CO)C(=O)N[C@@H](CCC(N)=O)C(=O)N[C@@H](Cc1ccccc1)C(=O)N[C@H](C)C(=O)N1Cc2ccccc2C[C@H]1C(=O)N[C@@H](CO)C(=O)O
B14: YW-222 (peptide)
peptide: [dTyr(3-F)]F[NMeL]P[dS]Q[2Nal][dA][Tic]S
modifications: not fully specified (residue 4); printed as [D-Tyr(3F)]-Phe-(NMe-Leu)-Pro(tran-4F)-(D-Ser)-Gln-(Nal-2)-(D-Ala)-Tic-Ser
B15: YW-97 (peptide)
peptide: [dF]FLP[dS]QF[dA][Tic]S-OH
modifications: N-terminus assumed
SMILES: CC(C)C[C@H](NC(=O)[C@H](Cc1ccccc1)NC(=O)[C@H](N)Cc1ccccc1)C(=O)N1CCC[C@H]1C(=O)N[C@H](CO)C(=O)N[C@@H](CCC(N)=O)C(=O)N[C@@H](Cc1ccccc1)C(=O)N[C@H](C)C(=O)N1Cc2ccccc2C[C@H]1C(=O)N[C@@H](CO)C(=O)O

Target: T1, human Chemokine like receptor 1
Test: cell-based or functional assay

Binder	EC50 (µM), activation of Tango CMKLR1-bla U2OS cells
[dTyr(3-F)]F[NMeL][Pro(diF)″][dS]Q[2Nal][dA][Tic][NMeS]-OH [YW-226]	0.0033 µM
B1	0.19 µM
B2	0.00067 µM
[dNMeY]F[NMeL][Pro(diF)″][dS]Q[2Nal][dA][Tic][NMeS]-OH [YW-225]	0.00064 µM
B3	0.00068 µM
B4	0.17 µM
B5	0.0069 µM
[dY]F[NMeL][Pro(diF)][dS]Q[2Nal][dA][Tic][NMeS] [YW-224]	0.0013 µM
B6	0.0039 µM
GG[dY]F[NMeL]P[dS]Q[2Nal][dA][Tic]S (not fully specified (residue 6, N-terminus)) [YW-223]	0.00033 µM
[dY]F[NMeL][Pro(trans-4-Ph)][dS]QF[dA][Tic]S [YW-215]	0.0048 µM
B7	0.0094 µM
{Palmitoyl-PEG8}-[βAla][βAla][dNMeY]F[NMeL][Pro(trans-4-Ph)][dS]Q[2Nal][dA][Tic]S [YW-217]	0.0033 µM
B8	0.0007 µM
B9	0.013 µM
[dY]F[NMeL][Thz][dS]Q[2Nal][dA][Tic]S-OH [YW-122]	0.0006 µM
B10	0.005 µM
[dY]FL[S‑Pip][dS]QF[dA][Tic]S [YW-96]	0.039 µM
B11	0.0099 µM
B12	0.021 µM
B13	0.08 µM
B14	0.00034 µM
[dNMeY]F[NMeL][Thz][dS]QF[dA][Tic]S [YW-123]	0.001 µM
[dY]FL[Pro(4Ph)][dS]QF[dA][Tic]S-OH [YW-113]	0.0086 µM
B15	0.05 µM
[dNMeY]F[NMeL][Pro(4Ph)][dS]Q[2Nal][dA][Tic]S [YW-216]	0.0013 µM
